Two substances from PMC6269424 can be followed below.

The conditions of this data set: O-GlcNAc at T84.

As for “PPARγ2: adipocyte-specific OGT knockout (FKO)”, the expression_or_secretion result is “decreases”.
The result for PPARγ2: T84A reads “decreases”.
